The labels stand for the following.
B1: EEHEE_rd4_0763 (parent)
chain: LTVHVGNVTYHFDNPEQAEEWAKRMAKKYQGQIHVKDGQFRIE

This data set covers variants of B1. The experiment in a line: folding stability dG (cDNA display proteolysis); higher = more stable. To be noted: PBS, room temperature.
As to LTVHVGNVTYHFDNPEQAEEWAKRMAKKYQGQIHVKDGQFRDE, the “folding stability dG” value was 1.17 kcal/mol.
LTVHVGNVTYHFDNPEQAEEWAKRMAKKYQGQIHVKDGQFREE: the “folding stability dG” value is 1.08 kcal/mol.
Next, LTVHVGNVTYHFDNPEQAEEWAKRMAKKYQGQIHVKDGQFRYE: 1.12 kcal/mol.
Next, LTVHVGNVTYHFDNPEQAEEWAKRMAKKYQGQIHVKDGQFRPE: 1.14 kcal/mol; LTVHVGNVTYHFDNPEQAEEWAKRMAKKYQGQIHVKDGQFRTE: 1.08 kcal/mol.
For LTVHVGNVTYHFDNPEQAEEWLKRMAKKYQGQIHVKDGQFRIE the value was 1.36 kcal/mol.
For LTVHVGNVTYHFDNPEQAEEWTKRMAKKYQGQIHVKDGQFRIE, the “folding stability dG” value amounted to 0.746 kcal/mol.
Next, LTVHVGNVTYHFDNPEQAEEWAKRMAKKFQGQIHVKDGQFRIE: 1.53 kcal/mol; LTVHVGNVTYHFDNPEQAEEWAKRMAKKMQGQIHVKDGQFRIE: 1.35 kcal/mol.
Take LTVHVGNVTYHFDNPEQAEEWAKRMAKKSQGQIHVKDGQFRIE: the “folding stability dG” value was determined as 0.788 kcal/mol.
For LTVHVGNVTYHFDNPEQAEEWAKRMAKKNQGQIHVKDGQFRIE the value was 0.767 kcal/mol.
Turning to LKVHVGNVTYHFDNPEQAEEWAKRMAKKYQGQIHVKDGQFRIE, the “folding stability dG” value amounted to 1.41 kcal/mol.
For LMVHVGNVTYHFDNPEQAEEWAKRMAKKYQGQIHVKDGQFRIE the value was 1.53 kcal/mol; for LRVHVGNVTYHFDNPEQAEEWAKRMAKKYQGQIHVKDGQFRIE, 1.48 kcal/mol; for LTVHVGNVTYHFDNPEQAEEWAKRMAKKYQGQIHVADGQFRIE, 1.49 kcal/mol.
Next, LTVHVGNVIYHFDNPEQAEEWAKRMAKKYQGQIHVKDGQFRIE: 1.92 kcal/mol.
Next, LTVHVGNVTYHFDHPEQAEEWAKRMAKKYQGQIHVKDGQFRIE: 1.57 kcal/mol; LTVHVGNVTYHFDNPEQAQEWAKRMAKKYQGQIHVKDGQFRIE: 1.58 kcal/mol; LTVHVGNVTYHFDNPEQALEWAKRMAKKYQGQIHVKDGQFRIE: 2.25 kcal/mol.
As to LTVHVHNVTYHFDNPEQAEEWAKRMAKKYQGQIHVKDGQFRIE, the “folding stability dG” value turned out to be 1.69 kcal/mol.
Next, LTVHVPNVTYHFDNPEQAEEWAKRMAKKYQGQIHVKDGQFRIE: 0.447 kcal/mol.
Next, LTVHVCNVTYHFDNPEQAEEWAKRMAKKYQGQIHVKDGQFRIE: 2.58 kcal/mol.
LTVHVGNVTYHFDNPEQAEEWAKRMAKKYQDQIHVKDGQFRIE: the “folding stability dG” value stood at 0.903 kcal/mol.
For the variant LTVHVGNVTYHFDNPEQAEEWAKRMAKKYQPQIHVKDGQFRIE, the “folding stability dG” value was 0.572 kcal/mol.
For LTVHVGNVTYHFDNPEQAEEWAKRMAKKYQGQIHVKDFQFRIE the value was 1.1 kcal/mol.
With LTVHVGNVTYHFDNPEQAEEWAKRMAKKYQGQIHVKDTQFRIE, the “folding stability dG” value is 0.621 kcal/mol.
For LTVHVGNVTYHFDNPEQAEEWAKRMAKKYQGQIHVKDRQFRIE the value was 0.874 kcal/mol; for LTVHVGNVTYHFDNPEQAEEWAKRMAKKYQGQIHVKDYQFRIE, 0.909 kcal/mol.
Next, LTVHVGNVTYHFDNPEQAEEWAKRMAKKYQGQIHPKDGQFRIE: 0.636 kcal/mol; LTVHVGNVTYHFDNPEQAEEWAKRMAKKYQGQIHFKDGQFRIE: 2.22 kcal/mol.
For LTVHVGNVTYHFDNPEQAEEWAKRMAKKYQGQIHDKDGQFRIE the value was 0.963 kcal/mol.
Regarding LTVHVGNVTYHFDNPEQAEEWAKRMAKKYQGRIHVKDGQFRIE, the “folding stability dG” value amounted to 1.64 kcal/mol.
For LTVHVGNVTYHFDNPEQAEEWAKRMAKKYQGYIHVKDGQFRIE the value was 1.51 kcal/mol.
For LTVHVGNVTYHFDNPNQAEEWAKRMAKKYQGQIHVKDGQFRIE the value was 1.56 kcal/mol.
In the case of LTVHVGNVTYHFDNPKQAEEWAKRMAKKYQGQIHVKDGQFRIE, the “folding stability dG” value was found to be 1.77 kcal/mol.
Next, LTVHVGNVTYHFDNPRQAEEWAKRMAKKYQGQIHVKDGQFRIE: 1.74 kcal/mol.
Consider LTVHVGNVTYHFDNPQQAEEWAKRMAKKYQGQIHVKDGQFRIE, for which the “folding stability dG” value stood at 1.69 kcal/mol.
LTVHVGNVTYHFDNPIQAEEWAKRMAKKYQGQIHVKDGQFRIE: the “folding stability dG” value was found to be 1.66 kcal/mol.
For LTVHVGNVTYHFDNPHQAEEWAKRMAKKYQGQIHVKDGQFRIE the value was 1.85 kcal/mol; for LTVHVGNVTYHFDNPEQAEEWAKRMAKWYQGQIHVKDGQFRIE, 1.6 kcal/mol; for LTVHVGNVTYHFDNPEQAEEWAKRMAKLYQGQIHVKDGQFRIE, 1.83 kcal/mol.
For LTVHVGNVTYHFDNPEQAEEWAKRMAKRYQGQIHVKDGQFRIE the value was 1.78 kcal/mol; for LTVHVGNVTYHFDNPEQAEEWAKRMAKFYQGQIHVKDGQFRIE, 1.67 kcal/mol; for LTVHVGNVTYHFDNPEQAEEWAKRMAKKYQGQIHVKDGQFRIS, 1.4 kcal/mol.
For LTVHVGNVTYHFDNPEQAEEWAKRMAKKYQGQIHVKDGQFRIQ the value was 1.29 kcal/mol; for LTVHVGNVTYDFDNPEQAEEWAKRMAKKYQGQIHVKDGQFRIE, 0.923 kcal/mol; for LTVHVGNVTYTFDNPEQAEEWAKRMAKKYQGQIHVKDGQFRIE, 1.67 kcal/mol.
LTVHVGNVTYLFDNPEQAEEWAKRMAKKYQGQIHVKDGQFRIE: the “folding stability dG” value turned out to be 1.5 kcal/mol.
Next, LTVHVGNVTYEFDNPEQAEEWAKRMAKKYQGQIHVKDGQFRIE: 1.23 kcal/mol; LTVHVGNVTYHFDNPEQAEEVAKRMAKKYQGQIHVKDGQFRIE: 0.517 kcal/mol; LTVHVGNVTYHFDNPEQAEESAKRMAKKYQGQIHVKDGQFRIE: 0.046 kcal/mol.
Next, LTVHVGNVTYHFDNPEQAEEWAKRMAKKYQGQIHVKMGQFRIE: 0.773 kcal/mol; LTVHVGNVTYHFDNPEQAEEWAKRMAKKYQGQIHVKRGQFRIE: 0.615 kcal/mol; LTVHVGNVTYHFDNPEQAEEWAKRMAKKYQGQIHVKFGQFRIE: 0.868 kcal/mol.
In the case of LTVHVGNVTYHFDNPEQAEEWAKRMAKKYQGQIHVKYGQFRIE, the “folding stability dG” value worked out at 0.742 kcal/mol.
For LTVHVGNVTYHFDNPEQAEEWAKRMTKKYQGQIHVKDGQFRIE the value was 0.749 kcal/mol; for LTVHVGNVTYHFDNPEQAEEWAKRMKKKYQGQIHVKDGQFRIE, 0.73 kcal/mol.
Take LTVHVGNVTAHFDNPEQAEEWAKRMAKKYQGQIHVKDGQFRIE: the “folding stability dG” value came out at 0.513 kcal/mol.
For LTVHVGNVTYHFDNPEQAEEWAKRMALKYQGQIHVKDGQFRIE the value was 1.75 kcal/mol.

The record behind these values is the MegaScale stability set (Tsuboyama et al. 2023).
